According to patent US20240261333A1 (published 2024):

Legend:
Test in all cases: co-IP with anti-FLAG, C-FLAG B3GNT2, mass spectrometry
DDX1 = target: T1, DDX1 (human, UniProt Q92499 1-740)
T1 construct: also called NP_004930.1
T1 sequence (looked up): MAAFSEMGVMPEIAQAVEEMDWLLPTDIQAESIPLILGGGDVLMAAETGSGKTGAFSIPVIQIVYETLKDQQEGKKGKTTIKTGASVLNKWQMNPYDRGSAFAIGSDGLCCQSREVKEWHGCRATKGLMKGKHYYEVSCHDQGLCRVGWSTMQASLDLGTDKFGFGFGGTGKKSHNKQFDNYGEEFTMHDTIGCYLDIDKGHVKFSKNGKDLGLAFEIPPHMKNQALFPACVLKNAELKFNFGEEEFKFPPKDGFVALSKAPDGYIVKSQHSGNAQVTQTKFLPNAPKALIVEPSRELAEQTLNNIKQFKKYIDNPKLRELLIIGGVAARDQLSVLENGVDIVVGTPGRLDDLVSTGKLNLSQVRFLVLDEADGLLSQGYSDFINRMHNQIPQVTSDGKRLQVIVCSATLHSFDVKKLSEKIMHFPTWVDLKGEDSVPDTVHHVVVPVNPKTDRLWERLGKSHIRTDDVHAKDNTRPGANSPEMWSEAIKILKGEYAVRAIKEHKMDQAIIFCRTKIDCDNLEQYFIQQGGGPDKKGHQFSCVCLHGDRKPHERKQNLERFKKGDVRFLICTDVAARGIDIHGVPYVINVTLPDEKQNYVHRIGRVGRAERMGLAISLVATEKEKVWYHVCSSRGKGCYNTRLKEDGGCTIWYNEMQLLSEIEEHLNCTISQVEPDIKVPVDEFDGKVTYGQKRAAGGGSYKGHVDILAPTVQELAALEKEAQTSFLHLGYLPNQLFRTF
Procedure: (§1) Cells were plated in 10-cm cell culture dishes and grown to 60-80% confluency. For each condition, two biological replicates were harvested for co-IP. Cells were washed with PBS and 4 mL of lysis buffer (20 mM HEPES, 1% Triton X-100, 150 mM NaCl, 1 mM EDTA, and 10% glycerol) containing protease inhibitor cocktail was added. Cells were scraped and lysate was incubated at 4° C. under rotary agitation for 1 h. Lysate was centrifuged at 14,000×g for 10 min at 4° C. Supernatant was transferred to a new tube and an aliquot was taken as the input. […] For Western blots, 10 μg/mL Chicken Anti-FLAG (Aves labs ET-DY100) and IgY control (R&D Systems AB-101-C) antibodies were biotinylated (Thermo Fisher Scientific 90407) and added to the respective conditions. Lysates with antibodies were incubated at 4° C. under rotary agitation overnight. For each mL of lysate, 50 μL of Pierce Protein A/G Magnetic Beads (Mass spectrometry; Thermo Fisher Scientific 88803) or Pierce Streptavidin Magnetic Beads (Western blot; Thermo Fisher Scientific 88817) was washed twice with lysis buffer. Lysates with antibodies were added to the beads and incubated at 4° C. under rotary agitation for 4 h. Beads were washed with lysis buffer 3 times and resuspended in lysis buffer for storage.
(§2) Magnetic beads were resuspended in 100 mM Tris pH 7.8, reduced, alkylated and digested with trypsin at 37° ° C. overnight. This solution was subjected to solid phase extraction to concentrate the peptides and remove unwanted reagents followed by injection onto a Shimadzu HPLC with fraction collector. Eight fractions were collected and after concentration were injected on a Waters NanoAcquity HPLC equipped with a self-packed Aeris 3 μm C18 analytical column 0.075 mm by 20 cm, (Phenomenex). Peptides were eluted using standard reverse-phase gradients. The effluent from the column was analyzed using a Thermo Orbitrap Elite mass spectrometer (nanospray configuration) operated in a data dependent manner for 54 minutes. The resulting fragmentation spectra were correlated against the known database using Proteome Discover 1.4 (Thermo Fisher Scientific).

LGALS7B = target: T2, LGALS7B (human, UniProt P47929 1-136)
T2 construct: also called NP_001035972.1
Procedure: as §1, §2

RPL38 = RPL38 (human, UniProt P63173 1-70)
Procedure: as §1, §2

S100A7 = target: T3, S100A7 (human, UniProt P31151 2-101)
T3 construct: also called NP_002954.2
T3 sequence (looked up): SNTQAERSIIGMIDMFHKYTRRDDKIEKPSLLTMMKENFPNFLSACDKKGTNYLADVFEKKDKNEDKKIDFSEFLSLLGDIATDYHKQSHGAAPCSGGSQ
Procedure: as §1, §2

IMMT = target: T4, IMMT (human, UniProt Q16891-4 34-757, limits assumed)
T4 construct: also called NP_001093639.1 (+3)
T4 sequence (looked up): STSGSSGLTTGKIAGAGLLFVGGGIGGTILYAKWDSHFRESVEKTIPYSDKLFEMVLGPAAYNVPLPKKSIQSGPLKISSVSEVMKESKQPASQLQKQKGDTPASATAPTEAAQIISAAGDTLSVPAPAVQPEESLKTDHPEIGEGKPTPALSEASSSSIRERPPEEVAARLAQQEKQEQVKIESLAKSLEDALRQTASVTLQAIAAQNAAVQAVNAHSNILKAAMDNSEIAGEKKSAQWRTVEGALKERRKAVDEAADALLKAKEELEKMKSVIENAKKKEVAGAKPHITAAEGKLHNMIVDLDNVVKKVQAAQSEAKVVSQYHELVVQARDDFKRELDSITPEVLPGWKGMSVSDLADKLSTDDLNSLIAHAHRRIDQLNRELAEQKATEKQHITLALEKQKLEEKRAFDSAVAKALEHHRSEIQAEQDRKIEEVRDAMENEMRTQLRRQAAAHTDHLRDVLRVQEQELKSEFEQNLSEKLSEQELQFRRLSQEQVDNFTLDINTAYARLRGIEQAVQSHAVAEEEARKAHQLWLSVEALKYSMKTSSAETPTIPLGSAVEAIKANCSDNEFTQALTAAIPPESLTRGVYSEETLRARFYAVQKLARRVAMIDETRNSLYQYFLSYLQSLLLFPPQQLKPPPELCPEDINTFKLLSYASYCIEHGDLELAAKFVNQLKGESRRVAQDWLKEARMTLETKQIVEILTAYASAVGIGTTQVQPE
Procedure: as §1, §2

PSMB5 = target: T5, PSMB5 (human, UniProt P28074 60-263)
T5 construct: also called NP_002788.1
Procedure: as §1, §2

P0AA25.2 = P0AA25.2 (UniProt P0AA25 2-109 = thioredoxin)
Procedure: as §1, §2

HBB = target: T6, HBB (human, UniProt P68871 2-147)
T6 construct: also called NP_000509.1
Procedure: as §1, §2

T5 sequence (P28074 60-263 limits assumed): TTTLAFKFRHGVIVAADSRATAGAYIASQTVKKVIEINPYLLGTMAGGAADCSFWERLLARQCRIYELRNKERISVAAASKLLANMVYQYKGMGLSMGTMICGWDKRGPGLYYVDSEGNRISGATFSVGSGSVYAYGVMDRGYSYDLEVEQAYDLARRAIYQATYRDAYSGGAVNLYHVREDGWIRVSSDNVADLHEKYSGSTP
T6 sequence (P68871 2-147 limits assumed): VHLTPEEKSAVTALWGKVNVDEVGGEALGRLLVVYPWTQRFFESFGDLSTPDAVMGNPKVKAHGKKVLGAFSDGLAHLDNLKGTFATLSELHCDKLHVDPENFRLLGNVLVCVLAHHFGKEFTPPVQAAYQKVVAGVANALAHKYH
P0AA25.2, sequence (P0AA25 2-109, one chain of several): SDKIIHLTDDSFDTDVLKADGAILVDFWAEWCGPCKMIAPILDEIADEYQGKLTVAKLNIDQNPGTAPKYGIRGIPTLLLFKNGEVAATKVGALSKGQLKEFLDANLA
T2 sequence (P47929 whole entry): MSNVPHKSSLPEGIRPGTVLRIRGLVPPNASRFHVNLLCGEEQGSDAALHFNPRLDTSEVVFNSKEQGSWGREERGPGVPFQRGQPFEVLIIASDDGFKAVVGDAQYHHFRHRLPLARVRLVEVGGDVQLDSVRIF

Binder | co-IP mass spectrometry count (DDX1) | co-IP mass spectrometry count (LGALS7B) | co-IP mass spectrometry count (RPL38) | co-IP mass spectrometry count (S100A7) | co-IP mass spectrometry count (IMMT) | co-IP/MS count, C-term flag (PSMB5) | co-IP/MS count, C-term flag (P0AA25.2) | co-IP/MS count, C-term flag (HBB)
C-terminal FLAG tagged B3GNT2 (enzyme, human, UniProt Q9NY97 1-397, looked up, FLAG-tagged ORF overexpressed in cells; pulled down from lysate with mouse anti-FLAG; also called C-FLAG B3GNT2; C-term flag; not shown: C-terminal FLAG tag) MSVGRRRIKLLGILMMANVFIYFIMEVSKSSSQEKNGKGEVIIPKEKFWKISTPPEAYWNREQEKLNRQYNPILSMLTNQTGEAGRLSNISHLNYCEPDLRVTSVVTGFNNLPDRFKDFLLYLRCRNYSLLIDQPDKCAKKPFLLLAIKSLTPHFARRQAIRESWGQESNAGNQTVVRVFLLGQTPPEDNHPDLSDMLKFESEKHQDILMWNYRDTFFNLSLKEVLFLRWVSTSCPDTEFVFKGDDDVFVNTHHILNYLNSLSKTKAKDLFIGDVIHNAGPHRDKKLKYYIPEVVYSGLYPPYAGGGGFLYSGHLALRLYHITDQVHLYPIDDVYTGMCLQKLGLVPEKHKGFRTFDIEEKNKNNICSYVDLMLVHSRKPQEMIDIWSQLQSAHLKC | 4 | 4 | 8 | 5 | 26 | – | – | –
C-terminal FLAG tagged B3GNT2 (enzyme, human, UniProt Q9NY97 1-397, looked up, FLAG-tagged ORF overexpressed in A375 cells; pulled down from the lysate with mouse anti-FLAG; also called C-FLAG B3GNT2; C-term flag; not shown: C-terminal FLAG tag) MSVGRRRIKLLGILMMANVFIYFIMEVSKSSSQEKNGKGEVIIPKEKFWKISTPPEAYWNREQEKLNRQYNPILSMLTNQTGEAGRLSNISHLNYCEPDLRVTSVVTGFNNLPDRFKDFLLYLRCRNYSLLIDQPDKCAKKPFLLLAIKSLTPHFARRQAIRESWGQESNAGNQTVVRVFLLGQTPPEDNHPDLSDMLKFESEKHQDILMWNYRDTFFNLSLKEVLFLRWVSTSCPDTEFVFKGDDDVFVNTHHILNYLNSLSKTKAKDLFIGDVIHNAGPHRDKKLKYYIPEVVYSGLYPPYAGGGGFLYSGHLALRLYHITDQVHLYPIDDVYTGMCLQKLGLVPEKHKGFRTFDIEEKNKNNICSYVDLMLVHSRKPQEMIDIWSQLQSAHLKC | – | – | – | – | – | 0 | 7 | 0
